Where no end group is shown, it is not given here. Alexa488 = Alexa488 fluorophore label
Experiments:
[1] = biological target: BACE (recombinant human BACE catalytic domain, expressed in CHO cells as BACE-T-IgG, IgG1 removed with thrombin) (human) (UniProt P56817); assay: binding assay without UV light (fluorescence anisotropy); absence of UV light
[2] = biological target: BACE (recombinant human BACE catalytic domain, expressed in CHO cells as BACE-T-IgG, IgG1 removed with thrombin) (human) (UniProt P56817); assay: fluorescence anisotropy binding assay
[3] = biological target: BACE (recombinant human BACE catalytic domain, expressed in CHO cells as BACE-T-IgG, IgG1 removed with thrombin) (human) (UniProt P56817); assay: ITC, Dulbecco's PBS, pH 7.1, 25° C.
[4] = biological target: BACE (recombinant human BACE catalytic domain, expressed in CHO cells as BACE-T-IgG, IgG1 removed with thrombin) (human) (UniProt P56817); assay: ITC, 25° C., Dulbecco's PBS
[5] = biological target: BACE (recombinant human BACE catalytic domain, expressed in CHO cells as BACE-T-IgG, IgG1 removed with thrombin) (human) (UniProt P56817); assay: cell-based or functional assay
[6] = biological target: BACE (recombinant human BACE catalytic domain, expressed in CHO cells as BACE-T-IgG, IgG1 removed with thrombin) (human) (UniProt P56817); assay: fluorescence anisotropy competition against Molecule Y1, pH 4.5
[7] = biological target: BACE (recombinant human BACE catalytic domain, expressed in CHO cells as BACE-T-IgG, IgG1 removed with thrombin) (human) (UniProt P56817); assay: fluorescence anisotropy competition against 10 nM Molecule Y1 on BACE, pH 4.5
[8] = biological target: BACE (recombinant human BACE catalytic domain, expressed in CHO cells as BACE-T-IgG, IgG1 removed with thrombin) (human) (UniProt P56817); assay: fluorescence anisotropy competition against Molecule Y1 on BACE, pH 4.5; labelled 'Ka(nM)' on the sheet, it is the dissociation constant of the competing ligand; error 102.58; the text prints 1197 nM
[9] = biological target: BACE (recombinant human BACE catalytic domain, expressed in CHO cells as BACE-T-IgG, IgG1 removed with thrombin) (human) (UniProt P56817); assay: fluorescence anisotropy binding assay, pH 4.5; comparison of label positions (X, Y1, Z)
[10] = biological target: BACE (recombinant human BACE catalytic domain, expressed in CHO cells as BACE-T-IgG, IgG1 removed with thrombin) (human) (UniProt P56817); assay: fluorescence anisotropy, BACE titrated into 10 nM Molecule Y1, no OM99-2, fit to 1:1 binding (error 2.1556); the text prints this value rounded (57 / 58 nM)
[11] = biological target: BACE (recombinant human BACE catalytic domain, expressed in CHO cells as BACE-T-IgG, IgG1 removed with thrombin) (human) (UniProt P56817); assay: fluorescence anisotropy, BACE titrated into 10 nM Molecule Y1 in the presence of 10 µM OM99-2, fit to 1:1 binding (error 1.5032); this table prints 'Kd' without a unit, nM is taken from the concentration axis and the -OM99-2 table
[12] = biological target: BACE (recombinant human BACE catalytic domain, expressed in CHO cells as BACE-T-IgG, IgG1 removed with thrombin) (human) (UniProt P56817); assay: fluorescence anisotropy, BACE titrated into 10 nM Molecule Y1 with 10 µM OM99-2; reference: without OM99-2
[13] = biological target: T1, BACE-1 (T7-BACE1(A14-T454)) (Homo sapiens (Human), UniProt P56817 14-454); assay: X-ray crystallography, peptide soaked into BACE-1/DPH-153979 co-crystal
T1 construct: BACE dimer in the asymmetric unit; also called Construct #1
T1 sequence (P56817 other isoform, or with tags, fused parts or gaps limits assumed): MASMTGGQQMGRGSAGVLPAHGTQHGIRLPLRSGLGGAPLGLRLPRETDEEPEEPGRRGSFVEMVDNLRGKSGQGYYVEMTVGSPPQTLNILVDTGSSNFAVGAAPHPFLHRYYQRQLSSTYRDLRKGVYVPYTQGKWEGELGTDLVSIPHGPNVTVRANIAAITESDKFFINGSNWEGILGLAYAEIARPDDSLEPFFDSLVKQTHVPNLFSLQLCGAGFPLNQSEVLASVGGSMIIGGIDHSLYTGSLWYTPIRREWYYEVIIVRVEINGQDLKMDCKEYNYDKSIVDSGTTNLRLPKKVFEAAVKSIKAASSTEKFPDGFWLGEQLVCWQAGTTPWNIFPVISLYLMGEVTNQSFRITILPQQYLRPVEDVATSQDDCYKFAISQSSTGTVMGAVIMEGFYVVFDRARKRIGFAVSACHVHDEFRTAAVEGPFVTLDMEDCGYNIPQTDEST
Method: Crystals appeared overnight and grew to their final dimensions (0.4×0.3×0.2 mm) in about two weeks.
Data were collected at 100° K using a Rigaku R-axis II system mounted on a RU-200 rotating anode generator and processed using HKL2000 (Otwinowski et. al., (1997) Methods in Enzymology, Macromolecular Crystallography, Part A; C. W. Carter, Jr. and R. M. Sweet, Eds.; Academic Press: New York, 276:307-326) (Table 6). The structure was determined by molecular replacement using the program EPMR (Kissinger et. al. (1999) Acta Crystallog. Sect. D, 55:484-491) in space group P2₁ with one BACE dimer per asymmetric unit. The starting model used was a BACE dimer (without inhibitor) from a previously determined structure. […] The active site inhibitor DPH-153979 was built into the electron density using the program QUANTA (Accelrys Software, Inc.) and refinement was carried out using the program CNX (Accelrys Software, Inc.). […] Refinement was not carried out past initial building of YPYFI due to ambiguous exosite peptide density.

[14] = biological target: BACE (recombinant human BACE catalytic domain, expressed in CHO cells as BACE-T-IgG, IgG1 removed with thrombin) (human) (UniProt P56817); assay: ITC, 25° C., 50 mM NaOAc, pH 4.5
[15] = biological target: BACE (recombinant human BACE catalytic domain, expressed in CHO cells as BACE-T-IgG, IgG1 removed with thrombin) (human) (UniProt P56817); assay: ITC, 50 mM NaOAc, pH 4.5, 25° C.
[16] = biological target: BACE (recombinant human BACE catalytic domain, expressed in CHO cells as BACE-T-IgG, IgG1 removed with thrombin) (human) (UniProt P56817); assay: ITC, Dulbecco's PBS, pH 7.0, 25° C.
[17] = biological target: BACE (recombinant human BACE catalytic domain, expressed in CHO cells as BACE-T-IgG, IgG1 removed with thrombin) (human) (UniProt P56817); assay: fluorescence anisotropy competition against Molecule X on BACE, pH 4.5, lower panel; labelled 'Ka(nM)' on the sheet, it is the dissociation constant of the competing ligand; error 337.16; the text prints it rounded (1073 nM)
[18] = biological target: BACE (recombinant human BACE catalytic domain, expressed in CHO cells as BACE-T-IgG, IgG1 removed with thrombin) (human) (UniProt P56817); assay: fluorescence anisotropy competition against Molecule X, pH 7.1
[19] = biological target: BACE (recombinant human BACE catalytic domain, expressed in CHO cells as BACE-T-IgG, IgG1 removed with thrombin) (human) (UniProt P56817); assay: ITC, pH 5.3, 37° C., peptide titrated into CHO BACE pre-incubated with a 10-fold excess of OM99-2
[20] = biological target: BACE (recombinant human BACE catalytic domain, expressed in CHO cells as BACE-T-IgG, IgG1 removed with thrombin) (human) (UniProt P56817); assay: ITC, pH 5.3, 37° C., peptide titrated into CHO BACE
[21] = biological target: BACE (recombinant human BACE catalytic domain, expressed in CHO cells as BACE-T-IgG, IgG1 removed with thrombin) (human) (UniProt P56817); assay: fluorescence anisotropy competition against Molecule X on BACE, pH 7.1, upper panel; labelled 'Ka' on the sheet without a unit, it is the dissociation constant of the competing ligand, nM from the axis and the lower table; error 33.456; the text prints it rounded (84 nM)
[22] = biological target: BACE (recombinant human BACE catalytic domain, expressed in CHO cells as BACE-T-IgG, IgG1 removed with thrombin) (human) (UniProt P56817); assay: fluorescence anisotropy competition against 10 nM Molecule X on BACE, pH 7.1, upper panel
[23] = biological target: BACE (recombinant human BACE catalytic domain, expressed in CHO cells as BACE-T-IgG, IgG1 removed with thrombin) (human) (UniProt P56817); assay: fluorescence anisotropy competition against Molecule X, pH 4.5
[24] = biological target: BACE (recombinant human BACE catalytic domain, expressed in CHO cells as BACE-T-IgG, IgG1 removed with thrombin) (human) (UniProt P56817); assay: fluorescence anisotropy, BACE titrated into 10 nM labeled peptide, pH 4.5, 1:1 model
[25] = biological target: BACE (recombinant human BACE catalytic domain, expressed in CHO cells as BACE-T-IgG, IgG1 removed with thrombin) (human) (UniProt P56817); assay: fluorescence anisotropy, pH 4.5 (value quoted for the labeled EBP used in the truncation screen)
[26] = biological target: BACE (recombinant human BACE catalytic domain, expressed in CHO cells as BACE-T-IgG, IgG1 removed with thrombin) (human) (UniProt P56817); assay: fluorescence anisotropy, BACE titrated into 10 nM labeled peptide, pH 7.1, 1:1 model
[27] = biological target: BACE (recombinant human BACE catalytic domain, expressed in CHO cells as BACE-T-IgG, IgG1 removed with thrombin) (human) (UniProt P56817); assay: fluorescence anisotropy binding assay, pH 4.5

BACE (recombinant human BACE catalytic domain, expressed in CHO cells as BACE-T-IgG, IgG1 removed with thrombin) (human), sequence (P56817 43-460 limits assumed, form in doubt): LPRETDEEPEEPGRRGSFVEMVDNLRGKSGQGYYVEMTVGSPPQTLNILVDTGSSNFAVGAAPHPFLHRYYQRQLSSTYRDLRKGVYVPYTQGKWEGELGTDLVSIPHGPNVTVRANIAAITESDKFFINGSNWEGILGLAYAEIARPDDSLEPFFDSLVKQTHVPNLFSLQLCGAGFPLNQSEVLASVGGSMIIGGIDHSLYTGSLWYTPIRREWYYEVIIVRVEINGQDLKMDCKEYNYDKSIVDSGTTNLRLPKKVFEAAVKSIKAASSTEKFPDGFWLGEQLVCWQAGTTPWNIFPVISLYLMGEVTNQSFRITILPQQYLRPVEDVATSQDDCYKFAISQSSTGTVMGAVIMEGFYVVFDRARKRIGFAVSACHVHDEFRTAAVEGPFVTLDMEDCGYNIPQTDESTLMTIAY

Molecule: YPYFIPB-Alexa488 (peptide)
- Kd [1]: 100 nM

Molecule: YPBFIPL-Alexa488 (peptide)
- Kd [1]: 100 nM

Molecule: YPYFIPL (not fully specified (N-terminus, C-terminus)) [Molecule Y2]
- Kd [2]: 92 nM

Molecule: Ac-ALYPYFLPISAK-NH2
- Kd [3]: 113 nM
- Ka [4]: 8.86e+06 M⁻¹
- n (stoichiometry) [4]: 1.06
- ΔH [4]: -11.8 kcal/mol

Molecule: YPYFIPL (not fully specified (N-terminus, C-terminus)) [Molecule Y3]
- Kd [2]: 48 nM
- IC50, inhibition of the proteolytic activity of BACE (cleavage of MCA-…(-dnp)-COOH, HPLC) [5]: 731 nM

Molecule: Ac-YPYFIPL-NH2
- Kd [6]: 1200 nM
- IC50 (read off the curve) [7]: 3000 nM
- Kd [8]: 1200 nM

Molecule: YPYFIPL (not fully specified (N-terminus, C-terminus)) [Molecule Y1 (YPYFIPL with C-terminal Alexa488)]
- Kd [9]: 58 nM
- Kd [2]: 57 nM
- Kd [10]: 57.6 nM
- Kd [11]: 9.59 nM
- fold enhancement of affinity in the presence of 10 µM OM99-2 [12]: 5 fold

Molecule: YPYFIPL-Alexa488 [BMS-597041 (YPYFIPL-Alexa488 Fluorophore)]
- binding result [13]: binds

Molecule: Ac-HWPFFIRS-NH2 [BMS-655507 (Ac-His-Trp-Pro-Phe-Phe-Ile-Arg-Ser)]
- Ka [14]: 610000 M⁻¹
- Kd [15]: 1640 nM
- Stoichiometry [15]: 0.86
- TΔS [15]: -5.46 kcal/mol
- ΔG [15]: -7.9 kcal/mol
- ΔH [15]: -13.3 kcal/mol
- Kd [16]: 914 nM
- Stoichiometry [16]: 0.71
- TΔS [16]: -9.81 kcal/mol
- ΔG [16]: -8.23 kcal/mol
- ΔH [16]: -18 kcal/mol
- Ka [4]: 1.09e+06 M⁻¹

Molecule: Ac-NLTTYPYFIPLP-NH2
- Kd [17]: 1070 nM
- Kd [18]: 84 nM
- Kd [19]: 280 nM
- Stoichiometry (mole:mole) [19]: 0.96 mole:mole
- T(dS) [19]: -5.7 kcal/mol
- ΔG [19]: -9.3 kcal/mol
- ΔH [19]: -15 kcal/mol
- Kd [20]: 380 nM
- Stoichiometry (mole:mole) [20]: 0.93 mole:mole
- T(dS) [20]: -6.8 kcal/mol
- ΔG [20]: -9.1 kcal/mol
- ΔH [20]: -15.9 kcal/mol
- Kd [21]: 84.2 nM
- IC50 (read off the curve) [22]: 500 nM
- Kd [23]: 1070 nM
- Kd [3]: 61 nM
- Ka [4]: 1.65e+07 M⁻¹
- n (stoichiometry) [4]: 1.03
- ΔH [4]: -12.9 kcal/mol

Molecule: NLTTYPYFIPLP (also: Alexa488 label, position shown only) [Molecule X (… labeled with Alexa488)]
- Kd [24]: 904 nM
- Kd [25]: 1000 nM
- Kd [26]: 139 nM
- Kd [27]: 903 nM

Molecule: YPYFIPL (not fully specified (N-terminus, C-terminus)) [Molecule Y4]
- Kd [2]: 62 nM

Source: patent US20070149763A1 (Bristol-Myers Squibb, published 2007)
